From article PMC3896610
Like-named read-outs stand apart in the source and are kept apart here.

What was measured:
IgG1-K409R-CD20 (human) [1] = test: analytical cation-exchange chromatography
IgG1-K409R-CD20 (human) [2] = test: analytical cation-exchange chromatography; remark: listed apart in the source

% bsIgG1-EGFRxCD20 by CIEX (IgG1-K409R-CD20 (human) [1]): 95% | % bsIgG1-EGFRxCD20 by CIEX (IgG1-K409R-CD20 (human) [2]): 96.3%
B1: IgG1-F405L-EGFR (antibody, V domains shown)
VH: QVQLVESGGGVVQPGRSLRLSCAASGFTFSTYGMHWVRQAPGKGLEWVAVIWDDGSYKYYGDSVKGRFTISRDNSKNTLYLQMNSLRAEDTAVYYCARDGITMVRGVMKDYFDYWGQGTLVTVSS
VL: AIQLTQSPSSLSASVGDRVTITCRASQDISSALVWYQQKPGKAPKLLIYDASSLESGVPSRFSGSESGTDFTLTISSLQPEDFATYYCQQFNSYPLTFGGGTKVEIK
